Assay results as given in patent publication US20220175781A1, “CD40L COMPOSITIONS AND METHODS FOR TUNABLE REGULATION” (Obsidian Therapeutics, Inc., priority 2019, published 2022).
Positions count from the first letter of the chain named. Where “and” joins values, the source holds several entries; their conditions need not be identical. Equal entries are not always repeated.

Tests used:
HEK293T cells = experiment: CD40L-ecDHFR constructs, CD40L surface expression in transfected HEK293T cells; type: cell-based, human; details: for SR (for % CD40L) / TMP/vehicle ratio of CD40L median fluorescence intensity: TMP (50 μM) versus Vehicle
Protocol: HEK293T cells were transiently transfected with the constructs in Table 39 (1 μg of DNA). 24 hours after transfection, the media was removed and replaced with fresh medium containing 50 μM TMP or DMSO. Another 24 hours later cells were analyzed by flow cytometry for CD40L surface expression. Table 39 provides CD40L expression as both % CD40L positive cells and the Median fluorescence intensity (MFI) values.

Jurkat cells [1] = experiment: In vivo CD40L regulation in Jurkat cells harvested from bone marrow of NSG mice; details: for CD40L MFI values / Percent CD40L positive cells: Jurkat cells from bone marrow, day 16
Description: Jurkat cells stably expressing OT-001661, OT-002034 were intravenously infused into 8-week old NSG mice (20 million cells per mouse). Starting by day 15, mice were orally dosed according to the study design shown in Table 42 and Jurkat cells were harvested on day 16 from the bone marrow and analyzed by FACS. In Tables 41 and 42, TMP refers to Trimethoprim and all dosing is relative to “0 hr” time point on day 16. The results are shown in Table 43 and Table 44 where “EV” refers to empty vector control.

Jurkat cells [2] = experiment: CD40L shedding ELISA of supernatant, Jurkat cells with or without CD40-Fc receptor; type: cell-based; set-up: CD40L levels in supernatant: unit not given here; details: 6 hours
Protocol: Sheddases e.g. ADAM10/17 present in the tumor microenvironment can cleave CD40L thereby preventing the successful activation of CD40 by CD40L. […] OT-001669 which has a deletion of amino acids 1-13 of CD40L was designed to reduce internalization and OT-001668 which has a deletion of amino acids 110-116 of CD40L was designed to remove the ADAM10/17 sites. Jurkat cells stably expressing the full length construct OT-001661, OT-001669, or OT-001668 were cultured for 6 hours with 1.25 μg/ml recombinant human (h) or mouse (m) CD40-Fc receptor or left untreated and tested using an ELISA assay (Table 15).

Jurkat cells [3] = experiment: Linker length, ER regulated CD40L, % CD40L positive Jurkat cells; type: cell-based
Protocol: Jurkat cells were lentivirally transduced and 24 hours after transduction were treated with DMSO or 1 μM Bazedoxifene for another 24 hours and analyzed by flow cytometry for surface expression of CD40L. […] In Table 33, SR indicates stabilization ratio.

[4] = system: T cells (CD4 and CD8 positive); experiment: Bazedoxifene dose response, CD40L MFI in CD4 and CD8 positive T cells (day 4, freeze/thaw, restimulation); type: cell-based
Protocol: Dose response with Bazedoxifene in T cells were conducted for OT-001966, OT-001967, OT-001666. Expression of CD40L was measured at (a) day 4 after transduction, (b) after freezing and thawing the cells or (c) after freezing and thawing the cells followed by restimulation with CD3/CD28 beads. The CD40L MFI (median fluorescence intensity) within CD4 and CD8 positive subpopulations is shown in Table 34 and Table 35 respectively.

[5] = Jurkat cells from bone marrow of mice treated with TMP versus vehicle control or empty vector
[6] = individual mice, TMP 500 mg/kg 3x oral

B1: OT-002035: CD40L-ecDHFR construct of Table 39 (protein)
chain: MSGISLIAALAVDRVIGMENAMPWNLPADLAWFKRNTLNKPVIMGRHTWESIGRPLPGRKNIILSSQPGTDDRVTWVKSVDEAIAACGDVPEIMVIGGGRVREQFLPKAQKLYLTHIDAEVEGDTHFPDYEPDDWESVFSEFHDADAQNSHSYCFEILERRHMIETYNQTSPRSAATGLPISMKIFMYLLTVFLITQMIGSALFAVYLHRRLDKIEDERNLHEDFVFMKTIQRCNTGERSLSLLNCEEIKSQFEGFVKDIMLNKEETKKENSFEMQKGDQNPQIAAHVISEASSKTTSVLQWAEKGYYTMSNNLVTLENGKQLTVKRQGLYYIYAQVTFCSNREASSQAPFIASLCLKSPGRFERILLRAANTHSSAKPCGQQSIHLGGVFELQPGASVFVNVTDPSQVSHGTGFTSFGLLKL
For B1, the “TMP mediated expression of CD40L” value (HEK293T cells; HEK293T cells, 50 μM TMP or DMSO 24 hours) was “exception”, the “% CD40L” value (HEK293T cells; TMP (50 μM)) was 23.8% and the “MFI (Median)” value (HEK293T cells; TMP (50 μM)) was 8311. For the same molecule, the “SR (for % CD40L)” value (HEK293T cells) was 0.89, the “TMP/vehicle ratio of CD40L median fluorescence intensity” value (HEK293T cells) was 0.97 and the “% CD40L” value (HEK293T cells; Vehicle) was 26.7%. For the same molecule, the “MFI (Median)” value (HEK293T cells; Vehicle) was 8535.

B2: OT-002034: TMP regulated CD40L construct stably expressed in Jurkat cells (protein)
chain: B1 chain with R102Q
For B2, the “% CD40L” value (HEK293T cells; TMP (50 μM)) was 71.1%, the “MFI (Median)” value (HEK293T cells; TMP (50 μM)) was 20569 and the “SR (for % CD40L)” value (HEK293T cells) was 2.44. For the same molecule, the “TMP/vehicle ratio of CD40L median fluorescence intensity” value (HEK293T cells) was 2.59, the “% CD40L” value (HEK293T cells; Vehicle) was 29.1% and the “MFI (Median)” value (HEK293T cells; Vehicle) was 7957. The “CD40L MFI values” (Jurkat cells [1]; Average, TMP 500 mg/kg 3x oral) was 520.75, the “Percent CD40L positive cells” value (Jurkat cells [1]; Average, TMP 500 mg/kg 3x oral) was 53.4% and the “CD40L MFI values” (Jurkat cells [1]; Average, Vehicle) was 93.65. For the same molecule, the “Percent CD40L positive cells” value (Jurkat cells [1]; Average, Vehicle) was 1.82%, the “% CD40L positive cells” value (Jurkat cells [1]; [5]) was “increased” and the “CD40L values (MFI)” value (Jurkat cells [1]; [5]) was “increased”. For the same molecule, the “CD40L MFI values” (Jurkat cells [1]; [6]) was 608 and 542 and 505 and 428, the “Percent CD40L positive cells” value (Jurkat cells [1]; [6]) was 61% and 56.3% and 52.2% and 44.1% and the “CD40L MFI values” (Jurkat cells [1]; individual mice, Vehicle) was 101 and 80.6 and 97.9 and 95.1. The “Percent CD40L positive cells” value (Jurkat cells [1]; individual mice, Vehicle) was 2.36% and 0.83% and 2.17% and 1.92%.

B3: OT-001669: CD40L construct with deletion of amino acids 1-13 of CD40L, designed to reduce internalization (protein)
chain: MHATGLPISMKIFMYLLTVFLITQMIGSALFAVYLHRRLDKIEDERNLHEDFVFMKTIQRCNTGERSLSLLNCEEIKSQFEGFVKDIMLNKEETKKENSFEMQKGDQNPQIAAHVISEASSKTTSVLQWAEKGYYTMSNNLVTLENGKQLTVKRQGLYYIYAQVTFCSNREASSQAPFIASLCLKSPGRFERILLRAANTHSSAKPCGQQSIHLGGVFELQPGASVFVNVTDPSQVSHGTGFTSFGLLKL
With B3 the “CD40L levels in supernatant” value (Jurkat cells [2]; 1.25 μg/ml hCD40-Fc) was 8444.30, the “CD40L levels in supernatant” value (Jurkat cells [2]; 1.25 μg/ml mCD40-Fc) was 4335.76 and the “shedding of CD40L” value (Jurkat cells [2]; 1.25 μg/ml recombinant human CD40-Fc) was “enhance the shedding”. For the same molecule, the “CD40L levels in supernatant” value (Jurkat cells [2]; Untreated) was 2137.69.

B4: OT-001967: ER regulated CD40L construct with varied linker length (protein)
chain: MSLALSLTADQMVSALLDAEPPILYSEYDPTRPFSEASMMGLLTNLADRELVHMINWAKRVPGFVDLTLHDQVHLLECAWMEILMIGLVWRSMEHPGKLLFAPNLLLDRDQGKCVEGGVEIFDMLLATSSRFRMMNLQGEEFVCLKSIILLNSGVYTFLSSTLKSLEEKDHIHRVLDKITDTLIHLMAKAGLTLQQQHQRLAQLLLILSHIRHMSNKRMEHLYSMKCKNVVPLSDLLLEMLDAHRLGSMIETYNQTSPRSAATGLPISMKIFMYLLTVFLITQMIGSALFAVYLHRRLDKIEDERNLHEDFVFMKTIQRCNTGERSLSLLNCEEIKSQFEGFVKDIMLNKEETKKENSFEMQKGDQNPQIAAHVISEASSKTTSVLQWAEKGYYTMSNNLVTLENGKQLTVKRQGLYYIYAQVTFCSNREASSQAPFIASLCLKSPGRFERILLRAANTHSSAKPCGQQSIHLGGVFELQPGASVFVNVTDPSQVSHGTGFTSFGLLKL
In the case of B4, the “Percent of Jurkat cells expressing CD40L” value (Jurkat cells [3]; 1 μM Bazedoxifene) is reported as 30%, the SR (Jurkat cells [3]; 1 μM Bazedoxifene versus DMSO, % CD40L positive Jurkat cells) is reported as 15 and the “Percent of Jurkat cells expressing CD40L” value (Jurkat cells [3]; DMSO) is reported as 2%. For the same molecule, the “CD40L expression (MFI)” value ([4]; CD4+ cells, Day 5, Bazedoxifene 0.01 nM) was 473, the “CD40L expression (MFI)” value ([4]; CD4+ cells, Day 5, Bazedoxifene 0.1 nM) was 474 and the “CD40L expression (MFI)” value ([4]; CD4+ cells, Day 5, Bazedoxifene 1 nM) was 483. The “CD40L expression (MFI)” value ([4]; CD4+ cells, Day 5, Bazedoxifene 10 nM) was 497, the “CD40L expression (MFI)” value ([4]; CD4+ cells, Day 5, Bazedoxifene 100 nM) was 630 and the “CD40L expression (MFI)” value ([4]; CD4+ cells, Day 5, Bazedoxifene 1000 nM) was 998. For the same molecule, the “CD40L expression (MFI)” value ([4]; CD4+ cells, Day 5, Bazedoxifene 10000 nM) was 1000, the “CD40L expression (MFI)” value ([4]; CD4+ cells, Post Thaw, Bazedoxifene 0.01 nM) was 156 and the “CD40L expression (MFI)” value ([4]; CD4+ cells, Post Thaw, Bazedoxifene 0.1 nM) was 160. For the same molecule, the “CD40L expression (MFI)” value ([4]; CD4+ cells, Post Thaw, Bazedoxifene 1 nM) was 161, the “CD40L expression (MFI)” value ([4]; CD4+ cells, Post Thaw, Bazedoxifene 10 nM) was 172 and the “CD40L expression (MFI)” value ([4]; CD4+ cells, Post Thaw, Bazedoxifene 100 nM) was 200. For the same molecule, the “CD40L expression (MFI)” value ([4]; CD4+ cells, Post Thaw, Bazedoxifene 1000 nM) was 223, the “CD40L expression (MFI)” value ([4]; CD4+ cells, Post Thaw, Bazedoxifene 10000 nM) was 457 and the “CD40L expression (MFI)” value ([4]; CD4+ cells, Restim, Bazedoxifene 0.01 nM) was 913. For the same molecule, the “CD40L expression (MFI)” value ([4]; CD4+ cells, Restim, Bazedoxifene 0.1 nM) was 922, the “CD40L expression (MFI)” value ([4]; CD4+ cells, Restim, Bazedoxifene 1 nM) was 913 and the “CD40L expression (MFI)” value ([4]; CD4+ cells, Restim, Bazedoxifene 10 nM) was 1131. For the same molecule, the “CD40L expression (MFI)” value ([4]; CD4+ cells, Restim, Bazedoxifene 100 nM) was 1549, the “CD40L expression (MFI)” value ([4]; CD4+ cells, Restim, Bazedoxifene 1000 nM) was 1232 and the “CD40L expression (MFI)” value ([4]; CD4+ cells, Restim, Bazedoxifene 10000 nM) was 291. The “CD40L expression (MFI)” value ([4]; CD8+ cells, Day 5, Bazedoxifene 0.01 nM) was 153, the “CD40L expression (MFI)” value ([4]; CD8+ cells, Day 5, Bazedoxifene 0.1 nM) was 153 and the “CD40L expression (MFI)” value ([4]; CD8+ cells, Day 5, Bazedoxifene 1 nM) was 157. The “CD40L expression (MFI)” value ([4]; CD8+ cells, Day 5, Bazedoxifene 10 nM) was 158, the “CD40L expression (MFI)” value ([4]; CD8+ cells, Day 5, Bazedoxifene 100 nM) was 226 and the “CD40L expression (MFI)” value ([4]; CD8+ cells, Day 5, Bazedoxifene 1000 nM) was 424. For the same molecule, the “CD40L expression (MFI)” value ([4]; CD8+ cells, Day 5, Bazedoxifene 10000 nM) was 392, the “CD40L expression (MFI)” value ([4]; CD8+ cells, Post Thaw, Bazedoxifene 0.01 nM) was 108 and the “CD40L expression (MFI)” value ([4]; CD8+ cells, Post Thaw, Bazedoxifene 0.1 nM) was 105. For the same molecule, the “CD40L expression (MFI)” value ([4]; CD8+ cells, Post Thaw, Bazedoxifene 1 nM) was 108, the “CD40L expression (MFI)” value ([4]; CD8+ cells, Post Thaw, Bazedoxifene 10 nM) was 114 and the “CD40L expression (MFI)” value ([4]; CD8+ cells, Post Thaw, Bazedoxifene 100 nM) was 149. The “CD40L expression (MFI)” value ([4]; CD8+ cells, Post Thaw, Bazedoxifene 1000 nM) was 178, the “CD40L expression (MFI)” value ([4]; CD8+ cells, Post Thaw, Bazedoxifene 10000 nM) was 263 and the “CD40L expression (MFI)” value ([4]; CD8+ cells, Restim, Bazedoxifene 0.1 nM) was 269. The “CD40L expression (MFI)” value ([4]; CD8+ cells, Restim, Bazedoxifene 1 nM) was 274, the “CD40L expression (MFI)” value ([4]; CD8+ cells, Restim, Bazedoxifene 10 nM) was 265 and the “CD40L expression (MFI)” value ([4]; CD8+ cells, Restim, Bazedoxifene 100 nM) was 326. For the same molecule, the “CD40L expression (MFI)” value ([4]; CD8+ cells, Restim, Bazedoxifene 1000 nM) was 445 and the “CD40L expression (MFI)” value ([4]; CD8+ cells, Restim, Bazedoxifene 10000 nM) was 372.
